Laboratory results taken from patent US20080182978A1, “ANTI-NGF ANTIBODIES AND METHODS USING SAME” (RINAT NEUROSCIENCE CORP, priority 2002, published 2008).

Test: Dose response of E3 on body weight in arthritic rats (Example 9)
Assay type: in vivo, rat
Experimental: The ability of E3 to produce reduction in pain in arthritic rats was further investigated by examining the dose response relationship between E3 administration and pain reduction. Rats were treated with adjuvant to induce arthritis as described above. Ten rats not injected with adjuvant were used as non-arthritic controls. Fourteen days after adjuvant injection, animals were qualified into the study based on the criteria stated above, randomized into eight groups of ten rats and tested for the intensity of their vocalization response. They were then dosed on day 14 with saline, or 0.003 mg/kg, 0.01 mg/kg, 0.03 mg/kg, 0.1 mg/kg, 0.3 mg/kg, 1 mg/kg or 5 mg/kg of E3 antibody as described above. Animals were tested for their vocalization response on days 16, 18, 20, and 24. Animals were redosed with saline or the same dose of E3 on day 18 after the vocalization testing. Animals were also weighed each day, starting at day 14. Thus, animals were dosed twice with a given dose of antibody or saline on days 14 and 18, and assessed for pain five times, on days 14, 16, 18, 20 and 24. Data are shown in Tables 20-22 and in FIGS. 20-22.
The effect of treating animals with various doses of anti-NGF antibody E3 on body weight was statistically analyzed by using two-way ANOVA to compare the results obtained pairwise between arthritic animals treated with vehicle with those treated with a given dose of antibody E3. […] At all higher dose of E3, the difference between treated and untreated arthritic animals was significant (p= or <0.0001). […]

[1] = E3 0.003 mg/kg on days 14+18, day 14
[2] = E3 0.003 mg/kg on days 14+18, day 15
[3] = E3 0.003 mg/kg on days 14+18, day 16
[4] = E3 0.003 mg/kg on days 14+18, day 17
[5] = E3 0.003 mg/kg on days 14+18, day 18
[6] = E3 0.003 mg/kg on days 14+18, day 20
[7] = E3 0.003 mg/kg on days 14+18, day 21
[8] = E3 0.003 mg/kg on days 14+18, day 23
[9] = E3 0.003 mg/kg on days 14+18, day 24
[10] = E3 0.01 mg/kg on days 14+18, day 14
[11] = E3 0.01 mg/kg on days 14+18, day 15
[12] = E3 0.01 mg/kg on days 14+18, day 16
[13] = E3 0.01 mg/kg on days 14+18, day 17
[14] = E3 0.01 mg/kg on days 14+18, day 18
[15] = E3 0.01 mg/kg on days 14+18, day 20
[16] = E3 0.01 mg/kg on days 14+18, day 21
[17] = E3 0.01 mg/kg on days 14+18, day 23
[18] = E3 0.01 mg/kg on days 14+18, day 24
[19] = E3 0.03 mg/kg on days 14+18, day 14
[20] = E3 0.03 mg/kg on days 14+18, day 15
[21] = E3 0.03 mg/kg on days 14+18, day 16
[22] = E3 0.03 mg/kg on days 14+18, day 17
[23] = E3 0.03 mg/kg on days 14+18, day 18
[24] = E3 0.03 mg/kg on days 14+18, day 20
[25] = E3 0.03 mg/kg on days 14+18, day 21
[26] = E3 0.03 mg/kg on days 14+18, day 23
[27] = E3 0.03 mg/kg on days 14+18, day 24
[28] = E3 0.1 mg/kg on days 14+18, day 14
[29] = E3 0.1 mg/kg on days 14+18, day 15

B1: E3: humanized, affinity matured anti-NGF antagonist antibody; variable regions SEQ ID NO:1 and 2; human IgG2a (A330P331 to S330S331), kappa (antibody, V domains shown)
VH: QVQLQESGPGLVKPSETLSLTCTVSGFSLIGYDLNWIRQPPGKGLEWIGIIWGDGTTDYNSAVKSRVTISKDTSKNQFSLKLSSVTAADTAVYYCARGGYWYATSYYFDYWGQGTLVTVS
VL: DIQMTQSPSSLSASVGDRVTITCRASQSISNNLNWYQQKPGKAPKLLIYYTSRFHSGVPSRFSGSGSGTDFTFTISSLQPEDIATYYCQQEHTLPYTFGQGTKLEIKRT
modifications: human IgG2a constant (A330S/P331S) and kappa constant missing
E3 0.003 mg/kg on days 14+18, day 0
  Body weight normalized to day 0: 100.00
E3 0.003 mg/kg on days 14+18, day 1
  Body weight normalized to day 0: 98.37
E3 0.003 mg/kg on days 14+18, day 2
  Body weight normalized to day 0: 102.47
E3 0.003 mg/kg on days 14+18, day 3
  Body weight normalized to day 0: 106.54
E3 0.003 mg/kg on days 14+18, day 4
  Body weight normalized to day 0: 110.09
E3 0.003 mg/kg on days 14+18, day 7
  Body weight normalized to day 0: 121.29
E3 0.003 mg/kg on days 14+18, day 8
  Body weight normalized to day 0: 124.44
E3 0.003 mg/kg on days 14+18, day 9
  Body weight normalized to day 0: 125.91
E3 0.003 mg/kg on days 14+18, day 10
  Body weight normalized to day 0: 123.30
E3 0.003 mg/kg on days 14+18, day 11
  Body weight normalized to day 0: 119.55
[1]
  Body weight normalized to day 0: 111.50
  Body weight normalized to day 14: 100.00
[2]
  Body weight normalized to day 0: 110.63
  Body weight normalized to day 14: 99.20
[3]
  Body weight normalized to day 0: 111.08
  Body weight normalized to day 14: 99.58
[4]
  Body weight normalized to day 0: 112.06
  Body weight normalized to day 14: 100.46
[5]
  Body weight normalized to day 0: 112.60
  Body weight normalized to day 14: 100.90
[6]
  Body weight normalized to day 0: 114.17
  Body weight normalized to day 14: 102.26
[7]
  Body weight normalized to day 0: 115.25
  Body weight normalized to day 14: 103.16
[8]
  Body weight normalized to day 0: 118.48
  Body weight normalized to day 14: 106.09
[9]
  Body weight normalized to day 0: 118.58
  Body weight normalized to day 14: 106.16
E3 0.01 mg/kg on days 14+18, day 0
  Body weight normalized to day 0: 100.00
E3 0.01 mg/kg on days 14+18, day 1
  Body weight normalized to day 0: 98.86
E3 0.01 mg/kg on days 14+18, day 2
  Body weight normalized to day 0: 102.61
E3 0.01 mg/kg on days 14+18, day 3
  Body weight normalized to day 0: 106.29
E3 0.01 mg/kg on days 14+18, day 4
  Body weight normalized to day 0: 110.61
E3 0.01 mg/kg on days 14+18, day 7
  Body weight normalized to day 0: 121.59
E3 0.01 mg/kg on days 14+18, day 8
  Body weight normalized to day 0: 124.47
E3 0.01 mg/kg on days 14+18, day 9
  Body weight normalized to day 0: 125.82
E3 0.01 mg/kg on days 14+18, day 10
  Body weight normalized to day 0: 123.87
E3 0.01 mg/kg on days 14+18, day 11
  Body weight normalized to day 0: 121.20
[10]
  Body weight normalized to day 0: 111.80
  Body weight normalized to day 14: 100.00
[11]
  Body weight normalized to day 0: 110.85
  Body weight normalized to day 14: 99.18
[12]
  Body weight normalized to day 0: 110.98
  Body weight normalized to day 14: 99.33
[13]
  Body weight normalized to day 0: 111.42
  Body weight normalized to day 14: 99.69
[14]
  Body weight normalized to day 0: 112.54
  Body weight normalized to day 14: 100.69
[15]
  Body weight normalized to day 0: 114.82
  Body weight normalized to day 14: 102.70
[16]
  Body weight normalized to day 0: 114.76
  Body weight normalized to day 14: 102.63
[17]
  Body weight normalized to day 0: 116.76
  Body weight normalized to day 14: 104.41
[18]
  Body weight normalized to day 0: 116.56
  Body weight normalized to day 14: 104.23
E3 0.03 mg/kg on days 14+18, day 0
  Body weight normalized to day 0: 100.00
E3 0.03 mg/kg on days 14+18, day 1
  Body weight normalized to day 0: 98.67
E3 0.03 mg/kg on days 14+18, day 2
  Body weight normalized to day 0: 102.05
E3 0.03 mg/kg on days 14+18, day 3
  Body weight normalized to day 0: 105.31
E3 0.03 mg/kg on days 14+18, day 4
  Body weight normalized to day 0: 109.24
E3 0.03 mg/kg on days 14+18, day 7
  Body weight normalized to day 0: 117.15
E3 0.03 mg/kg on days 14+18, day 8
  Body weight normalized to day 0: 118.52
E3 0.03 mg/kg on days 14+18, day 9
  Body weight normalized to day 0: 118.60
E3 0.03 mg/kg on days 14+18, day 10
  Body weight normalized to day 0: 115.26
E3 0.03 mg/kg on days 14+18, day 11
  Body weight normalized to day 0: 112.94
[19]
  Body weight normalized to day 0: 108.37
  Body weight normalized to day 14: 100.00
[20]
  Body weight normalized to day 0: 108.68
  Body weight normalized to day 14: 100.34
[21]
  Body weight normalized to day 0: 109.21
  Body weight normalized to day 14: 100.89
[22]
  Body weight normalized to day 0: 110.16
  Body weight normalized to day 14: 101.80
[23]
  Body weight normalized to day 0: 111.14
  Body weight normalized to day 14: 102.70
[24]
  Body weight normalized to day 0: 113.17
  Body weight normalized to day 14: 104.51
[25]
  Body weight normalized to day 0: 113.80
  Body weight normalized to day 14: 105.08
[26]
  Body weight normalized to day 0: 114.93
  Body weight normalized to day 14: 106.14
[27]
  Body weight normalized to day 0: 114.99
  Body weight normalized to day 14: 106.23
E3 0.1 mg/kg on days 14+18, day 0
  Body weight normalized to day 0: 100.00
E3 0.1 mg/kg on days 14+18, day 1
  Body weight normalized to day 0: 99.31
E3 0.1 mg/kg on days 14+18, day 2
  Body weight normalized to day 0: 102.87
E3 0.1 mg/kg on days 14+18, day 3
  Body weight normalized to day 0: 106.26
E3 0.1 mg/kg on days 14+18, day 4
  Body weight normalized to day 0: 110.20
E3 0.1 mg/kg on days 14+18, day 7
  Body weight normalized to day 0: 120.50
E3 0.1 mg/kg on days 14+18, day 8
  Body weight normalized to day 0: 123.48
E3 0.1 mg/kg on days 14+18, day 9
  Body weight normalized to day 0: 125.46
E3 0.1 mg/kg on days 14+18, day 10
  Body weight normalized to day 0: 123.95
E3 0.1 mg/kg on days 14+18, day 11
  Body weight normalized to day 0: 121.98
[28]
  Body weight normalized to day 0: 113.90
  Body weight normalized to day 14: 100.00
[29]
  Body weight normalized to day 0: 113.66
  Body weight normalized to day 14: 99.83
E3 0.1 mg/kg on days 14+18, day 16
  Body weight normalized to day 0: 115.06
